Test results as given in the RNAGym collection of RNA variant scans (doi:10.7554/elife.80360).

B1: Hairpin Ribozyme (parent)
chain: GUCCUCUUUCACGUGCGCGUGAAAGAGAGAAGUGAACCAGAGAAACACACGUUGUGGUAUAUUACCUGGUA

Variants of: B1
Assay: self-cleavage, relative activity (ratio to wild type); higher = more cleavage; co-transcriptional

Row | Variant | self-cleavage
1 | A49C A71U | 0.27
2 | A22C U60G | 0.484
3 | A59C A71C | 0.304
4 | C18G G32U | 0.1
5 | C6U U33G | 0.126
6 | G40U G42A | 0.202
7 | A23C G57U | 0.29
8 | C16U U55G | 0.219
9 | A24G C46A | 0.107
10 | U7G U67A | 0.238
11 | U53C G56U | 0.196
12 | G17U C38U | 0.519
13 | U5A G51A | 0.393
14 | G25C G32C | 0.116
15 | A39C G57C | 0.127
16 | C6U U14C | 0.932
17 | A26G G40A | 0.302
18 | A49U A71G | 0.221
19 | U33C U58C | 0.169
20 | G19C A22U | 0.487
21 | U58G A71G | 0.935
22 | G29A A47U | 0.107
23 | C38G C48G | 0.071
24 | C18U G54U | 0.702

Row | Variant | self-cleavage
25 | C37G A64G | 0.15
26 | A22C G51U | 0.919
27 | C16G A23U | 0.718
28 | A24C A28G | 1.13
29 | C46U U60A | 0.16
30 | G25C A47C | 0.217
31 | A30C A44C | 0.0571
32 | C4A A30C | 0.0814
33 | U2G G17C | 0.367
34 | A41C A43G | 0.191
35 | A24U U60A | 0.57
36 | C16G U60G | 0.511
37 | U9C G34C | 1.3
38 | U20G U62C | 0.188
39 | C3A G54U | 0.403
40 | U33C U67G | 0.21
41 | G1A A64C | 0.0979
42 | C10G G17A | 0.676
43 | G29A A71C | 0.295
44 | G32C G34C | 0.101
45 | G15U U53C | 1.04
46 | C4A C46A | 0.146
47 | C4A A64G | 0.134
48 | C3G A44C | 0.153

Row | Variant | self-cleavage
49 | U2G U33A | 0.115
50 | U8A A49U | 0.148
51 | A26G C48U | 0.18
52 | G17U | 0.961
53 | U33A G68C | 0.138
54 | G29A G56A | 0.157
55 | A11C G32U | 0.063
56 | C46G U53C | 0.0868
57 | C3U G29U | 0.117
58 | A39G U52G | 0.3
59 | A35U A41C | 0.957
60 | C37G G42A | 0.117
61 | G13A A22G | 0.676
62 | U2C G17A | 0.15
63 | A41U G69C | 0.55
64 | C3U C46U | 0.151
65 | G40C U63A | 0.183
66 | C38G G57A | 0.0627
67 | G34C A35C | 1.25
68 | G1C U67G | 0.0946
69 | A36U G42A | 0.115
70 | G54C G69U | 0.113
71 | A49U | 0.179
72 | U9G U52G | 0.492

Row | Variant | self-cleavage
73 | A30U G56A | 0.127
74 | G15C A71C | 1.29
75 | G27C A31G | 0.124
76 | C12A A43G | 0.116
77 | U8G G40U | 0.132
78 | A22U A31C | 0.0317
79 | C46A U58G | 0.158
80 | G1C U8G | 0.216
81 | C18G A36U | 0.728
82 | G25A G56C | 0.117
83 | U8G A47G | 0.0909
84 | C6A A28G | 0.811
85 | A26C A44G | 0.124
86 | G19A G29A | 0.173
87 | C18A U20G | 0.946
88 | C10G G56U | 0.109
89 | U8G U63A | 0.245
90 | G15A G27C | 0.146
91 | G21C G57A | 0.16
92 | G32U U60C | 0.0374
93 | G25C A30G | 0.157
94 | A47G U55G | 0.139
95 | A23C C46A | 0.131
96 | G56A U63G | 0.0781

Row | Variant | self-cleavage
97 | U2C C37A | 0.0991
98 | A11U A22C | 0.363
99 | U20G G27C | 0.165
100 | C6A A35G | 0.619
101 | A11U G21C | 0.549
102 | U53G G57C | 0.202
103 | A49G U55G | 0.498
104 | G19C G21C | 0.493
105 | C16A U20A | 0.743
106 | U14G U20C | 0.992
107 | C37G A61U | 0.155
108 | U14G C37A | 0.276
109 | C48A U63A | 0.174
110 | U5C G69A | 0.158
111 | A39U U70C | 0.247
112 | C16A U70C | 0.978
113 | C50G A61C | 0.0643
114 | A61G U62G | 0.128
115 | U14A U63A | 0.162
116 | U7G A30U | 0.0317
117 | C4A U14G | 0.0473
118 | U33G G51C | 0.202
119 | U14G U20A | 0.866
120 | A24C G42C | 0.342

Row | Variant | self-cleavage
121 | U55G G56U | 0.211
122 | G21U C38A | 0.184
123 | G17U G42U | 0.343
124 | G40C U67C | 0.098
125 | A47U G51U | 0.166
126 | A24G C46G | 0.105
127 | A49U G68C | 0.14
128 | G42A C48G | 0.127
129 | A61G C65A | 0.159
130 | A23G A61U | 0.138
131 | A41G U55G | 0.138
132 | G32U G54A | 0.105
133 | A22G G42U | 0.288
134 | U5A C37G | 0.18
135 | C18A A64C | 0.19
136 | G15A C18U | 1.05
137 | G42C G69A | 0.0872
138 | A39U U53C | 0.508
139 | G17U C65U | 0.383
140 | A31C G51A | 0.179
141 | A28U C46A | 0.0952
142 | A49U U62G | 0.0483
143 | G21A G32U | 0.0748
144 | C6U A11G | 0.816

Row | Variant | self-cleavage
145 | A24C G42A | 0.195
146 | C10U G27C | 0.0988
147 | C12G A49U | 0.12
148 | U9C A31G | 0.592
149 | G29C A61U | 0.0566
150 | G29U A31C | 0.2
151 | G25U G27A | 0.131
152 | U7C U20G | 0.751
153 | A28U A41U | 1.31
154 | G17A U63C | 0.181
155 | G21A A36U | 0.503
156 | C50G A59U | 0.112
157 | U14C A49G | 0.553
158 | G42A A45U | 0.109
159 | U14A U60C | 1.07
160 | A24C A47U | 0.0898
161 | A43G A47C | 0.172
162 | C3G G40C | 0.147
163 | A11G A35G | 0.764
164 | G25C C46A | 0.129
165 | U2A U33C | 0.0635
166 | U7G U67C | 0.217
167 | U8A A36G | 0.714
